These results are taken from article PMC10281526, “Polydom/SVEP1 binds to Tie1 and promotes migration of lymphatic endothelial cells” (The Journal of Cell Biology, 2023).

Some results are limits rather than exact numbers.

Assay [1] deals with recombinant Tie1 extracellular domain, Fc fusion protein (UniProt P35590).
For assay [2], the target named is T1, recombinant full-length mouse Polydom (mouse, UniProt A2AVA0 18-3567).
T1 construct: Polydom (SVEP1), mouse, full length; expression vector as in Sato-Nishiuchi et al., 2012; The construct is described in Sato-Nishiuchi et al., 2012; also called SVEP1; full-length Polydom
T1 sequence (A2AVA0 18-3567): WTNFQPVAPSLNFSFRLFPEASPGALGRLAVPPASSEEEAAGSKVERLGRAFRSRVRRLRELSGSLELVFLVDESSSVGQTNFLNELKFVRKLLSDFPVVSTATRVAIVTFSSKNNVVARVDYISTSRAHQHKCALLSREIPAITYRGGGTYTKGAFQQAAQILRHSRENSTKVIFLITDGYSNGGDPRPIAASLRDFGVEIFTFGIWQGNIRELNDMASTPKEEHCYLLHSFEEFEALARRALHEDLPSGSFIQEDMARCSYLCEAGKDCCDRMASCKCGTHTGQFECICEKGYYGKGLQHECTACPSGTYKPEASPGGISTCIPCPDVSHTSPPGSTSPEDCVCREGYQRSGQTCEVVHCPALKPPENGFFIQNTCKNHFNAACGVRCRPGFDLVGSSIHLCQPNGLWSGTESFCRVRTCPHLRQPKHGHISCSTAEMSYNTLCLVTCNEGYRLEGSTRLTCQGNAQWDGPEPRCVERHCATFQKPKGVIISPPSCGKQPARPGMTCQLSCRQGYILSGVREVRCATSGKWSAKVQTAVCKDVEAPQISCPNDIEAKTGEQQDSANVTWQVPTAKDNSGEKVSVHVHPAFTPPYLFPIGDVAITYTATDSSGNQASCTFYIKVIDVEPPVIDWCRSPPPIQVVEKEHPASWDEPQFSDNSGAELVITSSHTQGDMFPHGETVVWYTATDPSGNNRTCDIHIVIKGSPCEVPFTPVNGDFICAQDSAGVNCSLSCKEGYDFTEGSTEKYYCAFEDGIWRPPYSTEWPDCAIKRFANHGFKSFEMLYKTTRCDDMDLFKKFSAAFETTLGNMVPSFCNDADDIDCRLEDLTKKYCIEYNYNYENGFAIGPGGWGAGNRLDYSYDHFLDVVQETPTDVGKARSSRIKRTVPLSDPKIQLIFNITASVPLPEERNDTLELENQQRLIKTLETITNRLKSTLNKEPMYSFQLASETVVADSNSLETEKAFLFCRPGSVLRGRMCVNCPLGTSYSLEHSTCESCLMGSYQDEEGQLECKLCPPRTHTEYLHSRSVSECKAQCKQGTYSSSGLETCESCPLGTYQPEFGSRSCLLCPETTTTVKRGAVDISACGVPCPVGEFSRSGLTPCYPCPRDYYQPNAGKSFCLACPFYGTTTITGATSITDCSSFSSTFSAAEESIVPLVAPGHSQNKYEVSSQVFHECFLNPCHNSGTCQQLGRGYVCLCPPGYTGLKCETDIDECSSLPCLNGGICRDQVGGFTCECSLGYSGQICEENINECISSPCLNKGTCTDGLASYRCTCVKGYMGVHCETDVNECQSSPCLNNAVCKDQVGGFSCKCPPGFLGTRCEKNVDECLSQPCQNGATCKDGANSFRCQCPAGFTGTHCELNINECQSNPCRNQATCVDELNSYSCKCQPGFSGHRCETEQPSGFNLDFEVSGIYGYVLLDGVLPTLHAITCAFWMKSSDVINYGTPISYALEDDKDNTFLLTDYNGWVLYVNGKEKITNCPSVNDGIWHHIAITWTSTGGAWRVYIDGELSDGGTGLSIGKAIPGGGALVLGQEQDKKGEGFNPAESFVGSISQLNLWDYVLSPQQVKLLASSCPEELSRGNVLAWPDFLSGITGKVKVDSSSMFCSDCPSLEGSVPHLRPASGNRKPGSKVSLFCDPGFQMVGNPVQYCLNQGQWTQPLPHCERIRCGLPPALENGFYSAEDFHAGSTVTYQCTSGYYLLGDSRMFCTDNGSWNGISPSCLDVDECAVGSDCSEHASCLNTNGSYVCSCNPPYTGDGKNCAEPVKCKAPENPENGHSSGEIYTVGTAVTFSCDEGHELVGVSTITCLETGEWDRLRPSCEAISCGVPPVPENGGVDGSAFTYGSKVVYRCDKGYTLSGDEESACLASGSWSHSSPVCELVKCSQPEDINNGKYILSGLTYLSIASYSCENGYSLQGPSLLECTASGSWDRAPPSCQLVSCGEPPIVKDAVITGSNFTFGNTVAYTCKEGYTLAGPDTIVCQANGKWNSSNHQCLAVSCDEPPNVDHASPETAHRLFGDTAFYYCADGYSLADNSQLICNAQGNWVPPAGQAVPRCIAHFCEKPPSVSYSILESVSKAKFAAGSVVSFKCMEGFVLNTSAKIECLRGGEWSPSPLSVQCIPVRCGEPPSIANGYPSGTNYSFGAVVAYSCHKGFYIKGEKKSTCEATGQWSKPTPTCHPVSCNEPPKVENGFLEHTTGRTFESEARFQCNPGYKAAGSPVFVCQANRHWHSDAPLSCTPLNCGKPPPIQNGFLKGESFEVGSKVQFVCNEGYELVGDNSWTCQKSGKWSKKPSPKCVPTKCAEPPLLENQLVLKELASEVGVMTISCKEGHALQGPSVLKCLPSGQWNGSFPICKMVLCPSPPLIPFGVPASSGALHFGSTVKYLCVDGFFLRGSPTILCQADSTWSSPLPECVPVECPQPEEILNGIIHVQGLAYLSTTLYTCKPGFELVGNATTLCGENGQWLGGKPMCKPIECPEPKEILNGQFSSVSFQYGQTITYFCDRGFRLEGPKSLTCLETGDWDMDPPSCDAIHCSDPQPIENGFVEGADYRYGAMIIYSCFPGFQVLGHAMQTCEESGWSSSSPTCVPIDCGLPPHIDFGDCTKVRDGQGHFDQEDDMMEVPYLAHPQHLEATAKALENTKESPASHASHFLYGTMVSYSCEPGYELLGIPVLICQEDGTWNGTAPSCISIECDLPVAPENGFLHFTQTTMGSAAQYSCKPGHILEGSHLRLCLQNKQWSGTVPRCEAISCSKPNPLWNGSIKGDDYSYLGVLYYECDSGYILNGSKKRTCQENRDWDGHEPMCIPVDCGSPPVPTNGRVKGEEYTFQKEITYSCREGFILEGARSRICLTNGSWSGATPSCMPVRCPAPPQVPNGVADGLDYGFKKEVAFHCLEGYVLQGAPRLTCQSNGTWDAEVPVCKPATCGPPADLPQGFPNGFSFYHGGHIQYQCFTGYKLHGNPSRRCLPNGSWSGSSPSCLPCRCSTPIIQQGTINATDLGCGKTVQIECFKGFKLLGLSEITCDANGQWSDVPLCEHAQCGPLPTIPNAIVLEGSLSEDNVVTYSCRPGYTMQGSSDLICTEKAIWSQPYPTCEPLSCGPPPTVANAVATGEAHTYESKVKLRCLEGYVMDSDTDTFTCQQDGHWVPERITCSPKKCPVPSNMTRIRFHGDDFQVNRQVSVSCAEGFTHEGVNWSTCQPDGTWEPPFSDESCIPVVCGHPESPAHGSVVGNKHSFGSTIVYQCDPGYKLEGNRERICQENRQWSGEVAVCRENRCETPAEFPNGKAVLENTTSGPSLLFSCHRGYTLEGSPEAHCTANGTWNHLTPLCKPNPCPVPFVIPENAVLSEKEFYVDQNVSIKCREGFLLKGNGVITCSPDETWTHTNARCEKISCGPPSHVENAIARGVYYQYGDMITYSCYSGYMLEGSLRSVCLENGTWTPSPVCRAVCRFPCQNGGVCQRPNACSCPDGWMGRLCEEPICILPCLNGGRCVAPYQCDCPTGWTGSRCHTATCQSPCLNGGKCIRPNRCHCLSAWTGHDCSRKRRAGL
Briefly: ELISA; reverse solid-phase binding assay, titration: full-length Polydom coated (10 nM by the legend), serially diluted Tie1-Fc or Tie2-Fc in solution, detected with HRP anti-human IgG against the Fc tag; apparent dissociation constant. Conditions: both partners purified. In general terms: In an ELISA, binding on a coated surface is turned into a signal by an enzyme label.

A further assay addresses T2, Tie2 (Homo sapiens (Human), UniProt Q02763).
T2 chain: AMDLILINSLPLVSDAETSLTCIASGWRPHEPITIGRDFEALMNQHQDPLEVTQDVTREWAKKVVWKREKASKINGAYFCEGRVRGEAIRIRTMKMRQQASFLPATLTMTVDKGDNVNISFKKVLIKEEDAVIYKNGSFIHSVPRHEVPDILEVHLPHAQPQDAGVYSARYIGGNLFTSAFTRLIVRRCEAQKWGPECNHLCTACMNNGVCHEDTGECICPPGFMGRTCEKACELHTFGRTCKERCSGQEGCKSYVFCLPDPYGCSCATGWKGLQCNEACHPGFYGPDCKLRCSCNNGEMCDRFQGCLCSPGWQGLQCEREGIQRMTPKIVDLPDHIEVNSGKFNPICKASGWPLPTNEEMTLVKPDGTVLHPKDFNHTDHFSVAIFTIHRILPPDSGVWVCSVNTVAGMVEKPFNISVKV
Briefly: solid-phase ELISA, Tie-Fc dimers on coated SVEP1.

With “full-length Polydom E2567A mutant, A2AVA0 18-3567”, the Transwell migration of human dermal LECs toward Polydom/E2567A (1 μg/ml) in the lower chamber, reduction compared with control Polydom in assay [1] was 80%.

B1: recombinant Tie1 extracellular domain, Fc fusion protein (Fc fusion, UniProt P35590 22-759, looked up)
chain: AVDLTLLANLRLTDPQRFFLTCVSGEAGAGRGSDAWGPPLLLEKDDRIVRTPPGPPLRLARNGSHQVTLRGFSKPSDLVGVFSCVGGAGARRTRVIYVHNSPGAHLLPDKVTHTVNKGDTAVLSARVHKEKQTDVIWKSNGSYFYTLDWHEAQDGRFLLQLPNVQPPSSGIYSATYLEASPLGSAFFRLIVRGCGAGRWGPGCTKECPGCLHGGVCHDHDGECVCPPGFTGTRCEQACREGRFGQSCQEQCPGISGCRGLTFCLPDPYGCSCGSGWRGSQCQEACAPGHFGADCRLQCQCQNGGTCDRFSGCVCPSGWHGVHCEKSDRIPQILNMASELEFNLETMPRINCAAAGNPFPVRGSIELRKPDGTVLLSTKAIVEPEKTTAEFEVPRLVLADSGFWECRVSTSGGQDSRRFKVNVKVPPVPLAAPRLLTKQSRQLVVSPLVSFSGDGPISTVRLHYRPQDSTMDWSTIVVDPSENVTLMNLRPKTGYSVRVQLSRPGEGGEGAWGPPTLMTTDCPEPLLQPWLEGWHVEGTDRLRVSWSLPLVPGPLVGDGFLLRLWDGTRGQERRENVSSPQARTALLTGLTPGTHYQLDVQLYHCTLLGPASPPAHVLLPPSGPPAPRHLHAQALSDSEIQLTWKHPEALPGPISKYVVEVQVAGGAGDPLWIDVDRPEETSTIIRGLNASTRYLFRMRASIQGLGDWSNTVEESTLGNGLQAEGPVQESRAAEEGLDQ
notes: Tie1, extracellular domain, expressed as Fc fusion protein; The Fc tag was detected with an anti-human IgG antibody; also called Tie1 with an Fc tag; source: bought: R&D Systems
For the molecule B1, in assay [2], the Kd was found to be 43 ± 4 nM.

B2: SVEP1 (protein)
chain: DAIHCSDPQPIENGFVEGADYRYGAMIIYSCFPGFQVLGHAMQTCEESGWSSSSPTCVPID
With B2, the Kd with Tie2 is > 500 nM.
